From the supplement of paper PMC9170038

Tested on: MS2 coat protein
Experiment: apparent KD of MS2 coat protein; designed switch direction (-1 OFF switch, 1 ON switch): 1; higher = weaker reporter binding
Summary of the method: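 Three titration conditions were used: no input, 200 uM small-molecule ligand, and an oligonucleotide input. In each, SNAP-549-labelled MS2 coat protein was raised from 0.7 or 1.5 nM, doubling, to 3 µM over designed RNA switches transcribed on Illumina chips by stalled E. coli RNA polymerase. Curve fits of normalised cluster fluorescence gave values whose per-design median over clusters is the apparent KD.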

[1] = input ligand: microRNA oligo, concentration not stated
[2] = Eterna round: R95, input ligand: FMN 200 uM
[3] = Eterna round: R95, input ligand: microRNA oligo, concentration not stated
[4] = Eterna round: R95, input ligand: none

Row | Sequence | apparent KD of MS2 coat protein (input ligand: FMN 200 uM) [µM] | apparent KD of MS2 coat protein [1] [µM] | apparent KD of MS2 coat protein (input ligand: none) [µM] | apparent KD of MS2 coat protein [2] [µM] | apparent KD of MS2 coat protein [3] [µM] | apparent KD of MS2 coat protein [4] [µM]
1 | AAGAAACAUGAGGAUCACCCAUGUAGAAAUAUGGGAGGAUAUACGAGGACGAAAGUCAAAGUAGAAGGCCUAAGAA [Mat - Same State 1 - Meechl mod - D130] (Eterna round: R96, puzzle: Same State 1) | 0.0214 | 0.0545 | 0.0638 |  |  | 
2 | GGUCGGACUACAUGAGGAUCACCCAUGUGUGCGGAAACGCCAUAGGAUAUCUGUCCGAAAAGGUCAGAGAAGGGUGAACCGACC [Fiskers NG3ss - 67] (Eterna round: R96, puzzle: Same State NG 3) | 0.882 | 0.0301 | 0.0739 |  |  | 
3 | GGAGCCGGCCUAGGAUAUUUCAUAUAUUAACAUGAGGAUCACCCAUGUAGGCCAGAAGGCCUUGGGAAGAAGGAGGUCGGCUCC [Loop Effect - U25,U27,U28] (Eterna round: R96, puzzle: Same State NG 2) | 0.0157 | 0.0498 | 0.0796 |  |  | 
4 | GGCAGGUGCAGGCUUGCUUGCACCUGGAGACAUGAGGAUCACCCAUGUUUGGGACAAGCUUUGCUCCUCGUCUUUUC [JL ViennaUCT Isusreraar mod 7] (Eterna round: R96, puzzle: Sensor for hsa-mir-208a) | 0.622 | 0.111 | 0.775 |  |  | 
5 | GGUGCCAAUAAAGCCUACAUGAGGAUCACCCAUGUAUGUAGGCAGGAUAUCGUUUGCAAAGCAAACGAGAAGGGCUGAGGCACC [Mat - Same State NG 3 - JL Mod - D52] (Eterna round: R96, puzzle: Same State NG 3) | 0.0184 | 0.0398 | 0.0388 |  |  | 
6 | UUCAAUGGGAUAGGAUAUCCUGCGGCGAGGCGUGGAGAAGGGUCAAGUACAUGAGGAUCACCCAUGUUUCGGAAAUAUUCCGAG [Eternabot solution 29] (Eterna round: R96, puzzle: Same State NG 1) | 0.121 | 0.0415 | 0.125 |  |  | 
7 | AAUUAAUUAAUACAUGAGGAUCACCCAUGUAAUUAUUAGAUCUAGGAUAUCAGCUCGAAUAGAGCUGAGAAGGAGAUCACAUGU [SSNG3/18-B1] (Eterna round: R96, puzzle: Same State NG 3) |  | 0.0145 |  |  |  | 
8 | GCCGUAUAAACAUGAGGAUCACCCAUGUGCGCGAGAGCGAAUGAGGAUAUCGAUGGGUUUCCCGUCGAGAAGGCGUGGGUCGGC [JL SSNG3 3.96] (Eterna round: R96, puzzle: Same State NG 3) | 0.0377 | 0.0764 | 0.0963 |  |  | 
9 | CGUCCAGCCUGAGCUGGACAAAAGCAUGUACAUGAGGAUCACCCAUGUUCAUGUACAAGCUUUUUGCUCGUCUUAGC [salish99_208a_r3_075] (Eterna round: R96, puzzle: Sensor for hsa-mir-208a) | 0.598 | 0.0138 | 0.616 |  |  | 
10 | GUUACAUGAGGAUCACCCAUGUAAGUGUGGGAGAAAGUGACUUAGGAUAUCUAAUAUUUAAAUUAAGAGAAGGAAGAUUGUUGU [JMF's solution 4] (Eterna round: R96, puzzle: Same State NG 3) | 0.0868 | 0.0643 | 0.0816 |  |  | 
11 | GAGGAUGAUUUACAGGAUAUAUAGCAGAUGACAUGAGGAUCACCCAUGUAAGAGAAAGGAGGGAGAUAGAAGGGUAUGGGAUGUG [JR_SS2_Sub039] (puzzle: Same State 2) |  |  |  | 0.0299 | 0.0215 | 0.0223
12 | AAAAUAAAUACAGGAUAUAGCCGCCUAAAGCGGCUAGAAGGGUAGAUCGAAAUACAUGAGGAUCACCCAUGUGCACGUAAGUGC [Eresesgeti] (Eterna round: R96, puzzle: Same State NG 1) | 0.775 | 0.527 | 1.35 |  |  | 
13 | UUGCUCGUGUGAGGAUAUGCAGCCGUUUCGGCUGCAGAAGGUACUAUAAUACAUGAGGAUCACCCAUGUCUCUAUUGUUUAGUG [salish99_SSNG1_r04_927] (Eterna round: R96, puzzle: Same State NG 1) | 0.0257 | 0.0196 | 0.0267 |  |  | 
14 | AGUCCAGCCAGAGCUGGACAAAAGCAUGUACAUGAGGAUCACCCAUGUCAUGUACAAGCUUUUUGCUCGUCUUAAUA [Mat - hsa-mir-208a - Mod of JL - D37] (puzzle: Sensor for hsa-mir-208a) |  |  |  | 0.632 | 0.0154 | 0.621
15 | UUGAAGAAUUAAGGAUAUCGAGUCAAGAUGUAAAACAUGAGGAUCACCCAUGUGGGUUGCGGUAUCGAGAAGGUAAAUUACAAG [Mat - Same State NG 2 - JL mod - D52] (Eterna round: R96, puzzle: Same State NG 2) | 0.0241 | 0.0169 | 0.0354 |  |  | 
16 | UUAACAUGAGGAUCACCCAUGUAUAGGGAGUUAACAAUUGGACAGGAUAUUGAAGAUGUAGAUAGCAAGAAGGGUCGGUAGUCU [JR_SSNG3_Sub001] (Eterna round: R96, puzzle: Same State NG 3) |  | 0.03 |  |  |  | 
17 | GGAUGAUUGACAGGAUAUCAUUUGUAAAUUGGUUGAGAAGGGUCGAUUACUUACACGACCUGUUACAUGAGGAUCACCCAUGUU [SameState NG1 #3] (Eterna round: R96, puzzle: Same State NG 1) | 0.0349 | 0.0205 | 0.031 |  |  | 
18 | GGUAAGAAUUAAGGAUAUUGAAUACAUAUGUUUAACAUGAGGAUCACCCAUGUGGGUUGCGGUGUCGAGAAGGUAAAUUACUAG [Mat - same State NG 2 - JL mod - D99] (Eterna round: R96, puzzle: Same State NG 2) | 0.281 | 0.179 | 0.229 |  |  | 
19 | AUUUUUAAUGCAGGAUAUGAUUAACAUGAGGAUCACCCAUGUGGUGUUGUGAGUAAGGAGAGUGAUCAGAAGGGCAGUUUUUUU [JMF's solution 79] (Eterna round: R96, puzzle: Same State NG 2) | 0.543 | 0.315 | 0.499 |  |  | 
20 | UUGCAGUGCGGGUAGGAUAUGUAGGGUGGUACAUGAGGAUCACCCAUGUAUCCACCCUUCGACCGGCAGAAGGGCCUGUCACCGC [Lexeis] (Eterna round: R96, puzzle: Same State 2) | 0.0231 | 0.0112 | 0.0174 |  |  | 
21 | GAGGGACAGACCAACAUGAGGAUCACCCAUGUCCUCGCAGGUCAGGAUAUUAUUAGGAUCACCAGUGAGAAGGGACGGUGAACC (Eterna round: R96, puzzle: Same State NG 3) | 0.755 | 0.398 | 0.564 |  |  | 
22 | CUGAGCGAUCAAGGAUAUCACGUCGAUUAGACGUGAGAAGGUGAUAAUUACAUGAGGAUCACCCAUGUAUAACAUGAAGCUCAG [SSNG1/9-A2] (Eterna round: R96, puzzle: Same State NG 1) | 0.016 | 0.0173 | 0.0198 |  |  | 
23 | GGAUGAUAGACAGGAUAUUGAUUGUAAUUAGGUCAAGAAGGGUCAAUGAUUUAAACGACCAGUUACAUGAGGAUCACCCAUGUU [JR_SSNG1_Sub027] (Eterna round: R96, puzzle: Same State NG 1) | 0.16 | 0.208 | 0.315 |  |  | 
24 | CCGUAGAUGGAAGGAUAUGGAGCCUUAUUGGCUCCAGAAGGUUCAAUAACAUGAGGAUCACCCAUGUCGGCGGUCAAUAGACCG [Eli NG1ss - 80] (Eterna round: R96, puzzle: Same State NG 1) | 0.0205 | 0.0277 | 0.0449 |  |  | 
25 | AAAAGAAGAAGUAAGGAUAUUCAAAAGAAAACAUGAGGAUCACCCAUGUACCAAAAGAAAGAAAAGAAGAAGGUACACAAGAAAA [Same State 2 #3] (puzzle: Same State 2) |  |  |  | 0.0247 | 0.0232 | 0.0228
26 | GGUCCAGCCUGAGCUGGACCGAAGCGUGUACAUGAGGAUCACCCAUGUCAUGUACAAGCUUUUUGCUCGUCUUAUUG [JL-shm-2.10 JL Mod] (puzzle: Sensor for hsa-mir-208a) |  |  |  | 0.149 | 0.0188 | 0.285
27 | GGAGCCAAGGCAGGAUAUUCAACAUGAGGAUCACCCAUGUGGGUAAUAAAGGCCAGAAGGCCUUGGGAGAAGGGCCAUGGCUCG [Xeonanis - 13 mod13] (Eterna round: R96, puzzle: Same State NG 2) | 0.0168 | 0.00917 | 0.0177 |  |  | 
28 | AAGCGCUGUCGAGAGGAUAUGCGGUGAUGGACAUGAGGAUCACCCAUGUUAGCGAUAGCAUUACGGUAGAAGGCUCUACAGCUGA [Mat - Same State 2 - Mod of UCT - D86] (puzzle: Same State 2) |  |  |  | 0.0283 | 0.268 | 0.272
29 | AUUUCUAGCACAGGAUAUCAUGCGAAAAUUGCGUGAGAAGGGUGGACGCUGUCAUUCACGGAAGACAUGAGGAUCACCCAUGUC [SameState NG1 #76] (Eterna round: R96, puzzle: Same State NG 1) | 0.048 | 0.0534 | 0.102 |  |  | 
30 | GGUGCCAAUAAAGCCUACAUGAGGAUCACCCAUGUAUGUAGGCAGGAUAUCGUUUGCAAAGCAAACGAGAAGGGCCGAGGCACC [Mat - Same State NG 3 - JL Mod - D55] (Eterna round: R96, puzzle: Same State NG 3) | 0.018 | 0.0293 | 0.0396 |  |  | 
